Assay [1] addresses T1, hnRNP-K (heterogeneous nuclear ribonucleoprotein K) (human (endogenous protein of the human …, UniProt P61978 1-463, limits assumed)).
T1 construct: Endogenous intracellular protein
Nature of the assay: streptavidin affinity precipitation from HT1080 lysate, stringent wash, western blot with anti-hnRNP-K antibody. On the technique in general: A western blot detects proteins with antibodies after separation by electrophoresis.

Another assay has as its target T2, ビメンチン(vimentin) (human (endogenous protein of the human …, UniProt P08670 2-466)).
T2 construct: Endogenous intracellular protein
Nature of the assay: streptavidin affinity precipitation from HT1080 lysate, stringent wash, western blot with anti-vimentin antibody.

T2 sequence (P08670 2-466 limits assumed): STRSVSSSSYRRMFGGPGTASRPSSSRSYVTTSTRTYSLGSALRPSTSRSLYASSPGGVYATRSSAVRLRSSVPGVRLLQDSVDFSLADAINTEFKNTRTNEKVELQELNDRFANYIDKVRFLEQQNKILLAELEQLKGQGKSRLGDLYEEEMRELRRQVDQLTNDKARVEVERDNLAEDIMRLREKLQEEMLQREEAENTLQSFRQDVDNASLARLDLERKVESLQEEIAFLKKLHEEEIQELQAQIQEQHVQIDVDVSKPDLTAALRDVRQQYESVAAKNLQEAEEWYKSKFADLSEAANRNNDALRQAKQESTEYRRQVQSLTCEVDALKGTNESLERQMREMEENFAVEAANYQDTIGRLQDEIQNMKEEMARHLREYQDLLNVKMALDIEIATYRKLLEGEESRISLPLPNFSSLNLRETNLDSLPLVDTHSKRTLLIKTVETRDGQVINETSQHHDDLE

B1: VHH-Sfi-SBT (VHH, not shown: large carriers)
VHH: DVQLQASGGGSVQAGGSLRLSCAASGYTIGPYCMGWFRQAPGKEREGVAAINMGGGITYYADSVKGRFTISQDNAKNTVYLLMNSLEPEDTAIYYCAADSAIYASYYECGHGLSTGGYGYGPWGQGTQVTVSS
B1: the binding result (in assay [1]; with ビメンチン(vimentin)) was “no binding” each time.
